Results on one molecule are retold here after patent publication US20210269542A1 (POTENZA THERAPEUTICS, published 2021).

Positions count from the first letter of the chain named.

What all share (experiment): BLI (Octet): GITR-Fc mutant on anti-human Fc sensor, ABP1 Fab in solution
In test [1] the target is T1, human GITR-Fc mutant C58A (human, UniProt Q9Y5U5 26-162).
T1 construct: Point mutation in the human GITR extracellular domain with an Fc tag
T1 chain: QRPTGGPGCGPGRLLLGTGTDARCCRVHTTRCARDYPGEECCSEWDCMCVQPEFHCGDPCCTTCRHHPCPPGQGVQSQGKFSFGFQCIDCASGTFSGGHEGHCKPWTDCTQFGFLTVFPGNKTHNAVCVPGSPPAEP

Test [2] has as its target T2, human GITR-Fc mutant C66D (human, UniProt Q9Y5U5 26-162).
T2 chain: T1 chain with A33C, C41D

Test [3] concerns the target T3, human GITR-Fc mutant R59A (human, UniProt Q9Y5U5 26-162).
T3 chain: T1 chain with A33C, R34A

For test [4], the target named is T4, human GITR-Fc mutant P62A (human, UniProt Q9Y5U5 26-162).
T4 chain: T1 chain with A33C, P37A

The target of test [5] is T5, human GITR-Fc mutant E64A (human, UniProt Q9Y5U5 26-162).
T5 chain: T1 chain with A33C, E39A

For test [6], the target named is T6, human GITR-Fc mutant D60A (human, UniProt Q9Y5U5 26-162).
T6 chain: T1 chain with A33C, D35A

For test [7], the target named is T7, human GITR-Fc mutant R56A (human, UniProt Q9Y5U5 26-162).
T7 chain: T1 chain with R31A, A33C

The target of test [8] is T8, human GITR-Fc mutant Y61A (human, UniProt Q9Y5U5 26-162).
T8 chain: T1 chain with A33C, Y36A

For test [9], the target named is T9, human GITR-Fc mutant C67A (human, UniProt Q9Y5U5 26-162).
T9 chain: T1 chain with A33C, C42A

In test [10] the target is T10, human GITR-Fc mutant E65A (human, UniProt Q9Y5U5 26-162).
T10 chain: T1 chain with A33C, E40A

B1: ABP1 Fab (Fab, V domains shown)
VH: QVQLQESGPGLVKPSETLSLTCAVSGYSISSGLGWGWIRQPPGKGLEWIGGIYESGSTYYNPSLKSRVTISVDTSKNQFSLKLSSVTAADTAVYYCAHERVRGYGDYGGHHAFDIWGQGTMVTVSS
VL: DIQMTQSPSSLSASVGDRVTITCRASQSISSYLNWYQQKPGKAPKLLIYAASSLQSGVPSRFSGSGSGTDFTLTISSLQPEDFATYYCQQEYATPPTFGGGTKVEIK
B1: the binding result was “no binding” in [1]; “no binding” in [2]; “no binding” in [3]; “binds” in [4]; “no binding” in test [5]; “binds” in [6]. Also, the binding result is “binds” in [7], “no binding” in [8], “no binding” in [9] and “binds” in test [10].
